Publication PMC5735849

Columns and labels:
[1] = molecular target: T1, NP (ΔNPNTD) NTD (Zaire ebolavirus), P18272; settings: modification not given
T1 chain: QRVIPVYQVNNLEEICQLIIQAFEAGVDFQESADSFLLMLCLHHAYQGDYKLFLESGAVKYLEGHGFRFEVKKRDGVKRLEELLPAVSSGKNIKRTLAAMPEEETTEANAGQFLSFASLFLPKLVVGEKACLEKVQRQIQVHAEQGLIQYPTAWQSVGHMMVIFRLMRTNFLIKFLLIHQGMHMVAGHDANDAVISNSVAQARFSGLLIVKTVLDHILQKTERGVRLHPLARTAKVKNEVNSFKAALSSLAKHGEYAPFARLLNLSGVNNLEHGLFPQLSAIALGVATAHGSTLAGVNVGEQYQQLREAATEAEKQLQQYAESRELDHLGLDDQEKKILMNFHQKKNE

[2] = molecular target: T1, NP (ΔNPNTD) NTD (Zaire ebolavirus), …; test: competition; settings: modification not given

## MPGPELSGWISEQLMTGRIPVSDIFCDIE [VP35 NPBP 20-48, Q05127]
[1]
  Kd: 32 nM
[2]
  IC50: 262 nM
